Assay: Km and kcat of expressed HPPDs (HPLC/UV quantitation of homogentisate)
Type: biochemical, Avena sativa
Conditions: for Km / kcat: HPPDs expressed in extracts, 25° C., pH 7.0; for kcat: one active-site per dimer assumed; for Rate: kcat relative to non-mutated HPPD SEQ ID NO:14: for V217I, L271I, L271V, V258M, A326R estimated from initial rates in cell extracts, pH 7.0, 25° C., 120 μM HPP
Procedure: The assay solution was transferred to Chromacol 03-CVG HPLC vials, sealed and the amount of homogentisate formed in a 40 μl aliquot determined by injection onto a reverse phase Aqua C18 5μ 75×4.6 mm HPLC column running 5.5% acetonitrile 0.1% TFA (Buffer A) at 1.5 ml/min. The column was eluted at 1.5 ml/minute using a 2 minute wash in buffer A, followed by a 2 minute wash in a 30/70 mixture of buffer A and 100% Acetonitrile, and a further 3.5 minute wash in buffer A. The elution of homogentisate was monitored by UV at 292 nm and the amount formed in each reaction quantified by comparison with a standard calibration curve.
Km and Vmax values were determined (for example FIG. 1) using a non linear least squares fit using Grafit 4™ software (Erithacus Software, Middlesex, UK). Kcat values were determined by dividing the maximum rate, Vmax expressed in nmol/second by the number of nmoles of HPPD enzyme (based on the concentration determined by active-site titration).
Experiments were carried out as described for Table 4. ‘Sulc’ denotes sulcotrione and ‘nd’ means ‘no data’. For V217I, L271I, L271V, V258M and A326R, the relative values of kcat were estimated from comparisons of the initial rates in cell extracts of similarly prepared and expressed HPPDs in conventional enzyme activity assays at pH 7.0, 25° C. and at a substrate concentration of 120 μM HPP.

Molecule	Km [µM]	kcat [s⁻¹]	Rate: kcat relative to non-mutated HPPD SEQ ID NO:14
SEQ ID #24: SEQ ID NO:14 with substitution of M for L within the sequence motif G(I,V)LVDRD (protein, listed as Avena sativa) MPPTPATATGAAAAAVTPEHAARSFPRVVRVNPRSDRFPVLSFHHVELWCADAASAAGRFSFALGAPLAARSDLSTGNSAHASLLLRSGALAFLFTAPYAPPPQEAATAATASIPSFSADAARTFAAAHGLAVRSVGVRVADAAEAFRVSVAGGARPAFAPADLGHGFGLAEVELYGDVVLRFVSYPDETDLPFLPGFERVSSPGAVDYGLTRFDHVVGNVPEMAPVIDYMKGFLGFHEFAEFTAEDVGTTESGLNSVVLANNSEAVLLPLNEPVHGTKRRSQIQTYLEYHGGPGVQHIALASNDVLRTLREMRARTPMGGFEFMAPPQAKYYEGVRRIAGDVLSEEQIKECQELGVMVDRDDQGVLLQIFTKPVGDRPTFFLEMIQRIGCMEKDEVGQEYQKGGCGGFGKGNFSELFKSIEDYEKSLEVKQSVVAQKS	4.74	4.35	
L281V: mutant of HPPD SEQ ID NO:14, called L271V in the text (protein, mutant HPPD polypeptide) MPPTPATATGAAAAAVTPEHAARSFPRVVRVNPRSDRFPVLSFHHVELWCADAASAAGRFSFALGAPLAARSDLSTGNSAHASLLLRSGALAFLFTAPYAPPPQEAATAATASIPSFSADAARTFAAAHGLAVRSVGVRVADAAEAFRVSVAGGARPAFAPADLGHGFGLAEVELYGDVVLRFVSYPDETDLPFLPGFERVSSPGAVDYGLTRFDHVVGNVPEMAPVIDYMKGFLGFHEFAEFTAEDVGTTESGLNSVVLANNSEAVLLPVNEPVHGTKRRSQIQTYLEYHGGPGVQHIALASNDVLRTLREMRARTPMGGFEFMAPPQAKYYEGVRRIAGDVLSEEQIKECQELGVLVDRDDQGVLLQIFTKPVGDRPTFFLEMIQRIGCMEKDEVGQEYQKGGCGGFGKGNFSELFKSIEDYEKSLEVKQSVVAQKS			2
SEQ ID #21: SEQ ID NO:14 with substitution of V for I within the sequence motif SQIQTY (protein, listed as Avena sativa) MPPTPATATGAAAAAVTPEHAARSFPRVVRVNPRSDRFPVLSFHHVELWCADAASAAGRFSFALGAPLAARSDLSTGNSAHASLLLRSGALAFLFTAPYAPPPQEAATAATASIPSFSADAARTFAAAHGLAVRSVGVRVADAAEAFRVSVAGGARPAFAPADLGHGFGLAEVELYGDVVLRFVSYPDETDLPFLPGFERVSSPGAVDYGLTRFDHVVGNVPEMAPVIDYMKGFLGFHEFAEFTAEDVGTTESGLNSVVLANNSEAVLLPLNEPVHGTKRRSQVQTYLEYHGGPGVQHIALASNDVLRTLREMRARTPMGGFEFMAPPQAKYYEGVRRIAGDVLSEEQIKECQELGVLVDRDDQGVLLQIFTKPVGDRPTFFLEMIQRIGCMEKDEVGQEYQKGGCGGFGKGNFSELFKSIEDYEKSLEVKQSVVAQKS	5.98	5.47	
V217I: V217I mutant of HPPD SEQ ID NO:14 (protein, mutant HPPD polypeptide) MPPTPATATGAAAAAVTPEHAARSFPRVVRVNPRSDRFPVLSFHHVELWCADAASAAGRFSFALGAPLAARSDLSTGNSAHASLLLRSGALAFLFTAPYAPPPQEAATAATASIPSFSADAARTFAAAHGLAVRSVGVRVADAAEAFRVSVAGGARPAFAPADLGHGFGLAEVELYGDVVLRFVSYPDETDLPFLPGFERVSSPGAVDYGLTRFDHIVGNVPEMAPVIDYMKGFLGFHEFAEFTAEDVGTTESGLNSVVLANNSEAVLLPLNEPVHGTKRRSQIQTYLEYHGGPGVQHIALASNDVLRTLREMRARTPMGGFEFMAPPQAKYYEGVRRIAGDVLSEEQIKECQELGVLVDRDDQGVLLQIFTKPVGDRPTFFLEMIQRIGCMEKDEVGQEYQKGGCGGFGKGNFSELFKSIEDYEKSLEVKQSVVAQKS			1.1
SEQ ID #18: SEQ ID NO:14 with substitution of T for I within the sequence motif SQIQTY (protein, listed as Avena sativa) MPPTPATATGAAAAAVTPEHAARSFPRVVRVNPRSDRFPVLSFHHVELWCADAASAAGRFSFALGAPLAARSDLSTGNSAHASLLLRSGALAFLFTAPYAPPPQEAATAATASIPSFSADAARTFAAAHGLAVRSVGVRVADAAEAFRVSVAGGARPAFAPADLGHGFGLAEVELYGDVVLRFVSYPDETDLPFLPGFERVSSPGAVDYGLTRFDHVVGNVPEMAPVIDYMKGFLGFHEFAEFTAEDVGTTESGLNSVVLANNSEAVLLPLNEPVHGTKRRSQTQTYLEYHGGPGVQHIALASNDVLRTLREMRARTPMGGFEFMAPPQAKYYEGVRRIAGDVLSEEQIKECQELGVLVDRDDQGVLLQIFTKPVGDRPTFFLEMIQRIGCMEKDEVGQEYQKGGCGGFGKGNFSELFKSIEDYEKSLEVKQSVVAQKS	36	17.94	
SEQ ID #22: SEQ ID NO:14 with substitution of M for L within the sequence motif SGLNS (protein, listed as Avena sativa) MPPTPATATGAAAAAVTPEHAARSFPRVVRVNPRSDRFPVLSFHHVELWCADAASAAGRFSFALGAPLAARSDLSTGNSAHASLLLRSGALAFLFTAPYAPPPQEAATAATASIPSFSADAARTFAAAHGLAVRSVGVRVADAAEAFRVSVAGGARPAFAPADLGHGFGLAEVELYGDVVLRFVSYPDETDLPFLPGFERVSSPGAVDYGLTRFDHVVGNVPEMAPVIDYMKGFLGFHEFAEFTAEDVGTTESGMNSVVLANNSEAVLLPLNEPVHGTKRRSQIQTYLEYHGGPGVQHIALASNDVLRTLREMRARTPMGGFEFMAPPQAKYYEGVRRIAGDVLSEEQIKECQELGVLVDRDDQGVLLQIFTKPVGDRPTFFLEMIQRIGCMEKDEVGQEYQKGGCGGFGKGNFSELFKSIEDYEKSLEVKQSVVAQKS	12.4	5.79	
SEQ ID #14: HPPD derived from Avena sativa; single deletion variant of the Avena sativa HPPD (protein, mutant HPPD polypeptide) MPPTPATATGAAAAAVTPEHAARSFPRVVRVNPRSDRFPVLSFHHVELWCADAASAAGRFSFALGAPLAARSDLSTGNSAHASLLLRSGALAFLFTAPYAPPPQEAATAATASIPSFSADAARTFAAAHGLAVRSVGVRVADAAEAFRVSVAGGARPAFAPADLGHGFGLAEVELYGDVVLRFVSYPDETDLPFLPGFERVSSPGAVDYGLTRFDHVVGNVPEMAPVIDYMKGFLGFHEFAEFTAEDVGTTESGLNSVVLANNSEAVLLPLNEPVHGTKRRSQIQTYLEYHGGPGVQHIALASNDVLRTLREMRARTPMGGFEFMAPPQAKYYEGVRRIAGDVLSEEQIKECQELGVLVDRDDQGVLLQIFTKPVGDRPTFFLEMIQRIGCMEKDEVGQEYQKGGCGGFGKGNFSELFKSIEDYEKSLEVKQSVVAQKS	5.38	6.46	1
L281I: mutant of HPPD SEQ ID NO:14, called L271I in the text (protein, mutant HPPD polypeptide) MPPTPATATGAAAAAVTPEHAARSFPRVVRVNPRSDRFPVLSFHHVELWCADAASAAGRFSFALGAPLAARSDLSTGNSAHASLLLRSGALAFLFTAPYAPPPQEAATAATASIPSFSADAARTFAAAHGLAVRSVGVRVADAAEAFRVSVAGGARPAFAPADLGHGFGLAEVELYGDVVLRFVSYPDETDLPFLPGFERVSSPGAVDYGLTRFDHVVGNVPEMAPVIDYMKGFLGFHEFAEFTAEDVGTTESGLNSVVLANNSEAVLLPINEPVHGTKRRSQIQTYLEYHGGPGVQHIALASNDVLRTLREMRARTPMGGFEFMAPPQAKYYEGVRRIAGDVLSEEQIKECQELGVLVDRDDQGVLLQIFTKPVGDRPTFFLEMIQRIGCMEKDEVGQEYQKGGCGGFGKGNFSELFKSIEDYEKSLEVKQSVVAQKS			1.7
SEQ ID #26: SEQ ID NO:14 with M for L within G(I,V)LVDR and M for L within SGLNS (protein, listed as Avena sativa) MPPTPATATGAAAAAVTPEHAARSFPRVVRVNPRSDRFPVLSFHHVELWCADAASAAGRFSFALGAPLAARSDLSTGNSAHASLLLRSGALAFLFTAPYAPPPQEAATAATASIPSFSADAARTFAAAHGLAVRSVGVRVADAAEAFRVSVAGGARPAFAPADLGHGFGLAEVELYGDVVLRFVSYPDETDLPFLPGFERVSSPGAVDYGLTRFDHVVGNVPEMAPVIDYMKGFLGFHEFAEFTAEDVGTTESGMNSVVLANNSEAVLLPLNEPVHGTKRRSQIQTYLEYHGGPGVQHIALASNDVLRTLREMRARTPMGGFEFMAPPQAKYYEGVRRIAGDVLSEEQIKECQELGVMVDRDDQGVLLQIFTKPVGDRPTFFLEMIQRIGCMEKDEVGQEYQKGGCGGFGKGNFSELFKSIEDYEKSLEVKQSVVAQKS	10.6	4.05	

Source: patent US9175305B2, “Mutant hydroxyphenylpyruvate dioxygenase polypeptides and methods of use” (Syngenta Participations AG, priority 2009, dated 2015)
